Data set [1] addresses Transglutaminase 2 (TG2), wildtype, recombinant human (human) (UniProt P21980). As to the kind of experiment: SAXS; time-resolved SAXS, Kenics chaotic advection mixer, TG2 1 mg/mL final, 2 mM Ca2+, 0-631 ms; deconvolution into closed state monomer and open state dimer.
Data set [2] shares this target. The data set is described as follows: SAXS; static SAXS, 25 µM (2 mg/mL) TG2 with 2 mM Ca2+ for 5 min, TG2 Storage Buffer; DAMMIF envelopes (P1, P2), CRYSOL fit to the open state dimer; deconvolution into monomer and dimer.
For a further data set, the target named is T1, Transglutaminase 2 (TG2) (Homo sapiens, UniProt P21980).
T1 construct: gene TGM2; N-terminal six-histidine tagged human TG2
T1 sequence (P21980 1-687): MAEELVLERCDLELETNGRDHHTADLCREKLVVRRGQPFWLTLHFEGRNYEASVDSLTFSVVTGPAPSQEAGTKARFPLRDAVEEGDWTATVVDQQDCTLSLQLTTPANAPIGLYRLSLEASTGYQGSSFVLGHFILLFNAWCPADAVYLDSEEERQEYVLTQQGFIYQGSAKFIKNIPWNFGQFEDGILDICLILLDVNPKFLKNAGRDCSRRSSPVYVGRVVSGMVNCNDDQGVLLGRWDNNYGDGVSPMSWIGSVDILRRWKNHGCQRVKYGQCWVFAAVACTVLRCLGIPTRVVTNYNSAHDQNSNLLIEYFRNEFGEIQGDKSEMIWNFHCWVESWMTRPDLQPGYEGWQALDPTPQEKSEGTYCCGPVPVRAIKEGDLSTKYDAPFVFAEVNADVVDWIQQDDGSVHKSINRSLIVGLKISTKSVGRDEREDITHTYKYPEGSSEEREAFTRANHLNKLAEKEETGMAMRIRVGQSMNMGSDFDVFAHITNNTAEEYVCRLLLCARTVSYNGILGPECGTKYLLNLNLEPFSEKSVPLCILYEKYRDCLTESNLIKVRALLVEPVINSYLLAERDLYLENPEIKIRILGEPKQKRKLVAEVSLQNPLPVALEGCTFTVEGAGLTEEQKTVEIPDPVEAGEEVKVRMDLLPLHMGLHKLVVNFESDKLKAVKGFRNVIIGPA
As to the kind of experiment: biochemical. The arrangement: inhibition of TG2 protein crosslinking activity, gel-based read-out. An excerpt:
(the LM-series, Fig. S6).

Data set [3] deals with the molecule itself. As to the kind of experiment: SAXS; static SAXS, TG2 R580K with GTP at concentrations greater than 1 mM (up to 5 mM); CRYSOL fit to the open state dimer (from crystal packing of PDB 2Q3Z).

The record followed here is paper PMC11319651, “Distinct conformational states enable transglutaminase 2 to promote cancer cell survival versus cell death” (Communications Biology, 2024).

The stoichiometry N is a count of units in the complex or per binding partner. “Transglutaminase 2 (TG2), wildtype, recombinant human (from UniProt P21980 1-687) (enzyme)”: in data set [1], the percent dimer at t = 0 ms was found to be 61%. Further, in data set [2], the percent dimer after five minutes with Ca2+ came out at 100% and the stoichiometry N was determined as 2.

By IC50 is commonly meant the concentration at which inhibition is half-maximal. With `O=C1NC(=O)N(c2cccc(Cl)c2)C(=O)/C1=C/Nc1ccc(Cl)c(CN2C(=O)c3ccccc3C2=O)c1` [LM11], on Transglutaminase 2 (TG2), the IC50 turned out to be 10 µM.

B1: TG2 R580K mutant (enzyme, human)
chain: MAEELVLERCDLELETNGRDHHTADLCREKLVVRRGQPFWLTLHFEGRNYEASVDSLTFSVVTGPAPSQEAGTKARFPLRDAVEEGDWTATVVDQQDCTLSLQLTTPANAPIGLYRLSLEASTGYQGSSFVLGHFILLFNAWCPADAVYLDSEEERQEYVLTQQGFIYQGSAKFIKNIPWNFGQFEDGILDICLILLDVNPKFLKNAGRDCSRRSSPVYVGRVVSGMVNCNDDQGVLLGRWDNNYGDGVSPMSWIGSVDILRRWKNHGCQRVKYGQCWVFAAVACTVLRCLGIPTRVVTNYNSAHDQNSNLLIEYFRNEFGEIQGDKSEMIWNFHCWVESWMTRPDLQPGYEGWQALDPTPQEKSEGTYCCGPVPVRAIKEGDLSTKYDAPFVFAEVNADVVDWIQQDDGSVHKSINRSLIVGLKISTKSVGRDEREDITHTYKYPEGSSEEREAFTRANHLNKLAEKEETGMAMRIRVGQSMNMGSDFDVFAHITNNTAEEYVCRLLLCARTVSYNGILGPECGTKYLLNLNLEPFSEKSVPLCILYEKYRDCLTESNLIKVRALLVEPVINSYLLAEKDLYLENPEIKIRILGEPKQKRKLVAEVSLQNPLPVALEGCTFTVEGAGLTEEQKTVEIPDPVEAGEEVKVRMDLLPLHMGLHKLVVNFESDKLKAVKGFRNVIIGPA
notes: human transglutaminase 2 (TGM2), UniProt P21980, with the substitution R580K; The methods describe expression and purification only for TG2 in general; also called TG R580K
As for B1, the “stoichiometry N” value in data set [3] came to 2.
